B1: I777A, V872I (protein)
chain: MDYKDKALNDLRNVYADFDSLPLDFRQILIKDRATLLQKEDVEKKILERQEDAKKYAEYLKQSEIPERISLPNIKRHKGVSISFEETSEDMVLEPRPFIFDGLNIRCFRRETIFSLKNKILNMVKESSSFKNVSRQSVSFMYFKIFNKGKVIASTKSVNIYEDKIDERLEDLCNNFDDVLKKIIDVTYGYESLFVSETYSYVIFYAKSIYFPQPRCVNNWGNNIPNILTFDSFKLFTANKNNVSCIKQCSRFLWQKDFNTLEEMIEYKNGNICIVTPQLHINDVRDIKSFNDIRLYSESPIKTFSVIDNTITYLFYFKEHLGVIFNITKSRHDRRVTKFSPLSKFSDVKNITVCFDIESYFDPEKESNQVNIPFICCASIIYNKVIGNIVDFEGRDCVAQMIEYVVDICGELNISSVELIAHNGGGYDFHYILSSMYNPAAIKNILIRNNSFISFNFAHDGVKFSVKDSYSFLLCSLANASKAFLNEETFKKTDFPHHDLKTADDLYKVYKEWSSVNTEINHVVEKEKLLITSEHIVNFTKNDKSKTLIEWSKDYCRNDVLVLSKVWLEFKNAVEDIFNCELVDQTMTLAGLSYKLFQANMPFDVELRHPNKEDYFNMREALIGGRCISVNGIYKDVLCLDVKSLYPASMAFYDQPYGSFKRVSSRPKDELGIYYVRVTPNRNNKSNFFPIRSHNKITYNNFEESTYIAWYTNVDIDIGLSEGHNIEYIPFDSYGNIGYSWSKKGKIFEKYIKDVLYKLKIKYEKQNNKVKRNVIKAIMNSLWGKFAQKWVNFEYFIKSEDDIDFESEEAYKIWDTDFMLIKKIKESTYSSKPIQNGVFTLSWARYHMKSIWDAGAKEGAECIYSDTDSIFIHKEHFKKNAKFMLNGLKVPIIGSEVGQLELECEFDKLLCAGKKQYMGFYTYFQDGKPCIKEKKRFKGIPSNYIIPELYAHLLSGADKEAKIQFLKFRREWGSVKGYIENKTVKAT
B2: I777A, L909F (protein)
chain: MDYKDKALNDLRNVYADFDSLPLDFRQILIKDRATLLQKEDVEKKILERQEDAKKYAEYLKQSEIPERISLPNIKRHKGVSISFEETSEDMVLEPRPFIFDGLNIRCFRRETIFSLKNKILNMVKESSSFKNVSRQSVSFMYFKIFNKGKVIASTKSVNIYEDKIDERLEDLCNNFDDVLKKIIDVTYGYESLFVSETYSYVIFYAKSIYFPQPRCVNNWGNNIPNILTFDSFKLFTANKNNVSCIKQCSRFLWQKDFNTLEEMIEYKNGNICIVTPQLHINDVRDIKSFNDIRLYSESPIKTFSVIDNTITYLFYFKEHLGVIFNITKSRHDRRVTKFSPLSKFSDVKNITVCFDIESYFDPEKESNQVNIPFICCASIIYNKVIGNIVDFEGRDCVAQMIEYVVDICGELNISSVELIAHNGGGYDFHYILSSMYNPAAIKNILIRNNSFISFNFAHDGVKFSVKDSYSFLLCSLANASKAFLNEETFKKTDFPHHDLKTADDLYKVYKEWSSVNTEINHVVEKEKLLITSEHIVNFTKNDKSKTLIEWSKDYCRNDVLVLSKVWLEFKNAVEDIFNCELVDQTMTLAGLSYKLFQANMPFDVELRHPNKEDYFNMREALIGGRCISVNGIYKDVLCLDVKSLYPASMAFYDQPYGSFKRVSSRPKDELGIYYVRVTPNRNNKSNFFPIRSHNKITYNNFEESTYIAWYTNVDIDIGLSEGHNIEYIPFDSYGNIGYSWSKKGKIFEKYIKDVLYKLKIKYEKQNNKVKRNVIKAIMNSLWGKFAQKWVNFEYFIKSEDDIDFESEEAYKIWDTDFMLIKKIKESTYSSKPIQNGVFTLSWARYHMKSIWDAGAKEGAECIYSDTDSIFVHKEHFKKNAKFMLNGLKVPIIGSEVGQLELECEFDKFLCAGKKQYMGFYTYFQDGKPCIKEKKRFKGIPSNYIIPELYAHLLSGADKEAKIQFLKFRREWGSVKGYIENKTVKAT
B3: I777A, L900S (protein)
chain: MDYKDKALNDLRNVYADFDSLPLDFRQILIKDRATLLQKEDVEKKILERQEDAKKYAEYLKQSEIPERISLPNIKRHKGVSISFEETSEDMVLEPRPFIFDGLNIRCFRRETIFSLKNKILNMVKESSSFKNVSRQSVSFMYFKIFNKGKVIASTKSVNIYEDKIDERLEDLCNNFDDVLKKIIDVTYGYESLFVSETYSYVIFYAKSIYFPQPRCVNNWGNNIPNILTFDSFKLFTANKNNVSCIKQCSRFLWQKDFNTLEEMIEYKNGNICIVTPQLHINDVRDIKSFNDIRLYSESPIKTFSVIDNTITYLFYFKEHLGVIFNITKSRHDRRVTKFSPLSKFSDVKNITVCFDIESYFDPEKESNQVNIPFICCASIIYNKVIGNIVDFEGRDCVAQMIEYVVDICGELNISSVELIAHNGGGYDFHYILSSMYNPAAIKNILIRNNSFISFNFAHDGVKFSVKDSYSFLLCSLANASKAFLNEETFKKTDFPHHDLKTADDLYKVYKEWSSVNTEINHVVEKEKLLITSEHIVNFTKNDKSKTLIEWSKDYCRNDVLVLSKVWLEFKNAVEDIFNCELVDQTMTLAGLSYKLFQANMPFDVELRHPNKEDYFNMREALIGGRCISVNGIYKDVLCLDVKSLYPASMAFYDQPYGSFKRVSSRPKDELGIYYVRVTPNRNNKSNFFPIRSHNKITYNNFEESTYIAWYTNVDIDIGLSEGHNIEYIPFDSYGNIGYSWSKKGKIFEKYIKDVLYKLKIKYEKQNNKVKRNVIKAIMNSLWGKFAQKWVNFEYFIKSEDDIDFESEEAYKIWDTDFMLIKKIKESTYSSKPIQNGVFTLSWARYHMKSIWDAGAKEGAECIYSDTDSIFVHKEHFKKNAKFMLNGLKVPIIGSEVGQSELECEFDKLLCAGKKQYMGFYTYFQDGKPCIKEKKRFKGIPSNYIIPELYAHLLSGADKEAKIQFLKFRREWGSVKGYIENKTVKAT
B4: I777A, K934W (protein)
chain: MDYKDKALNDLRNVYADFDSLPLDFRQILIKDRATLLQKEDVEKKILERQEDAKKYAEYLKQSEIPERISLPNIKRHKGVSISFEETSEDMVLEPRPFIFDGLNIRCFRRETIFSLKNKILNMVKESSSFKNVSRQSVSFMYFKIFNKGKVIASTKSVNIYEDKIDERLEDLCNNFDDVLKKIIDVTYGYESLFVSETYSYVIFYAKSIYFPQPRCVNNWGNNIPNILTFDSFKLFTANKNNVSCIKQCSRFLWQKDFNTLEEMIEYKNGNICIVTPQLHINDVRDIKSFNDIRLYSESPIKTFSVIDNTITYLFYFKEHLGVIFNITKSRHDRRVTKFSPLSKFSDVKNITVCFDIESYFDPEKESNQVNIPFICCASIIYNKVIGNIVDFEGRDCVAQMIEYVVDICGELNISSVELIAHNGGGYDFHYILSSMYNPAAIKNILIRNNSFISFNFAHDGVKFSVKDSYSFLLCSLANASKAFLNEETFKKTDFPHHDLKTADDLYKVYKEWSSVNTEINHVVEKEKLLITSEHIVNFTKNDKSKTLIEWSKDYCRNDVLVLSKVWLEFKNAVEDIFNCELVDQTMTLAGLSYKLFQANMPFDVELRHPNKEDYFNMREALIGGRCISVNGIYKDVLCLDVKSLYPASMAFYDQPYGSFKRVSSRPKDELGIYYVRVTPNRNNKSNFFPIRSHNKITYNNFEESTYIAWYTNVDIDIGLSEGHNIEYIPFDSYGNIGYSWSKKGKIFEKYIKDVLYKLKIKYEKQNNKVKRNVIKAIMNSLWGKFAQKWVNFEYFIKSEDDIDFESEEAYKIWDTDFMLIKKIKESTYSSKPIQNGVFTLSWARYHMKSIWDAGAKEGAECIYSDTDSIFVHKEHFKKNAKFMLNGLKVPIIGSEVGQLELECEFDKLLCAGKKQYMGFYTYFQDGKPCIKEWKRFKGIPSNYIIPELYAHLLSGADKEAKIQFLKFRREWGSVKGYIENKTVKAT
B5: I777K, W790L, K934W (protein)
chain: MDYKDKALNDLRNVYADFDSLPLDFRQILIKDRATLLQKEDVEKKILERQEDAKKYAEYLKQSEIPERISLPNIKRHKGVSISFEETSEDMVLEPRPFIFDGLNIRCFRRETIFSLKNKILNMVKESSSFKNVSRQSVSFMYFKIFNKGKVIASTKSVNIYEDKIDERLEDLCNNFDDVLKKIIDVTYGYESLFVSETYSYVIFYAKSIYFPQPRCVNNWGNNIPNILTFDSFKLFTANKNNVSCIKQCSRFLWQKDFNTLEEMIEYKNGNICIVTPQLHINDVRDIKSFNDIRLYSESPIKTFSVIDNTITYLFYFKEHLGVIFNITKSRHDRRVTKFSPLSKFSDVKNITVCFDIESYFDPEKESNQVNIPFICCASIIYNKVIGNIVDFEGRDCVAQMIEYVVDICGELNISSVELIAHNGGGYDFHYILSSMYNPAAIKNILIRNNSFISFNFAHDGVKFSVKDSYSFLLCSLANASKAFLNEETFKKTDFPHHDLKTADDLYKVYKEWSSVNTEINHVVEKEKLLITSEHIVNFTKNDKSKTLIEWSKDYCRNDVLVLSKVWLEFKNAVEDIFNCELVDQTMTLAGLSYKLFQANMPFDVELRHPNKEDYFNMREALIGGRCISVNGIYKDVLCLDVKSLYPASMAFYDQPYGSFKRVSSRPKDELGIYYVRVTPNRNNKSNFFPIRSHNKITYNNFEESTYIAWYTNVDIDIGLSEGHNIEYIPFDSYGNIGYSWSKKGKIFEKYIKDVLYKLKIKYEKQNNKVKRNVIKKIMNSLWGKFAQKLVNFEYFIKSEDDIDFESEEAYKIWDTDFMLIKKIKESTYSSKPIQNGVFTLSWARYHMKSIWDAGAKEGAECIYSDTDSIFVHKEHFKKNAKFMLNGLKVPIIGSEVGQLELECEFDKLLCAGKKQYMGFYTYFQDGKPCIKEWKRFKGIPSNYIIPELYAHLLSGADKEAKIQFLKFRREWGSVKGYIENKTVKAT

The molecules below were run on p1-encoded leu2 (Q180*) (assay: Large-scale p1 fluctuation tests of p1-encoded leu2 (Q180*), per-base substitution rate). Details: per-base substitution rate, p1-encoded leu2 (Q180*), large-scale fluctuation test.
Format: cell-based, S. cerevisiae
Source text: All three TP-DNAP1 libraries were screened through small scale p1 fluctuation tests in a metastable S. cerevisiae strain, OR-Y24. OR-Y24 contains w.t. p1 and recombinant p1 that lacks w.t. TP-DNAP1, and instead, encodes a standardized fluorescence reporter of p1 copy number (Table 1), and a disabled version of the LEU2 selection marker (leu2 (Q180*)). As described previously (Ravikumar et al., 2014), leu2 (Q180*) contains a C→T mutation at base 538 in LEU2 at a site permissive to all single point mutants that generate missense mutations. Reversion to functional LEU2 can be detected on medium lacking leucine.
Large-scale fluctuation tests of p1-encoded leu2 (Q180*) were performed to precisely determine per-base substitution rates for individually cloned or isolated TP-DNAP1 variants. Large-scale p1 fluctuation tests are performed similarly to small-scale p1 fluctuation tests, with several modifications. First, large-scale p1 fluctuation tests were typically performed with 36-48 replicates. For highly error-prone TP-DNAP1s obtained from later rounds of screening, fewer replicates (3-16) were used, which is sufficient for similar precision (Foster et al., 2006). Second, p1 copy number was determined by the flow cytometry method, described below. Third, cell titers were measured for each fluctuation test to estimate the average number of cells per culture. Cell resuspensions were diluted and plated on solid SC-UH medium, and colony counts were determined after incubation at 30° C. for 2-3 days. Alternatively, cell resuspensions were diluted and subject to an event-count measurement via flow cytometry. Fourth, inoculums of highly error-prone TP-DNAP 1 s occasionally contained pre-existing mutants, despite the 1:10,000 dilution, so mutant frequencies were estimated by plating pre-cultures on solid SC-UHLW, pH 5.8 medium. Plates were incubated for 2-3 days, in parallel with cultures grown for fluctuation tests. Pre-culture mutant titers were counted to estimate the number of replicates in the fluctuation test expected to contain pre-existing mutants (n). Revertants were counted from all replicates of the fluctuation tests, counts were sorted, and n replicates with the highest counts were omitted from calculations.
To calculate per-base substitution rates, fluctuation data were analyzed by the maximum likelihood method, implemented using newton.LD.plating in rSalvador 1.7 (Zheng, 2017). Phenotypic mutation rates were calculated by normalizing to the average number of cells per culture. Phenotypic mutation rates were divided by the measured p1 copy number and by the number of ways leu2 (Q180*) can revert to LEU2 (2.33 for the ochre codon) to yield per-base substitution rates. 95% confidence intervals were similarly scaled by these factors. All data related to large-scale p1 fluctuation tests are fully described in Table 2.

Row | Molecule | Mutation rate (s.p.b.)
1 | B1 | 1.34 × 10^−10 s.p.b.
2 | B2 | 1.07 × 10^−7 s.p.b.
3 | B3 | 1.36 × 10^−7 s.p.b.
4 | B4 | 1.86 × 10^−7 s.p.b.
5 | B5 | 2.02 × 10^−7 s.p.b.

Reference: patent US20230242902A1, “A HIGHLY ERROR-PRONE […] R[…] FOR TARGETED CONTINUOUS EVOLUTION IN VIVO” (The Regents of the University of California, priority 2017, published 2023)
